Reference: US20250026849A1 (ARCELLX, published 2025)
One block for each binder: values may come before it.

Molecular target: T1, CD123 (Homo sapiens (Human), UniProt P26951 19-305, limits assumed)
T1 construct: The CD123 construct used in the ELISA is not described; also called CD123-Signal
T1 sequence: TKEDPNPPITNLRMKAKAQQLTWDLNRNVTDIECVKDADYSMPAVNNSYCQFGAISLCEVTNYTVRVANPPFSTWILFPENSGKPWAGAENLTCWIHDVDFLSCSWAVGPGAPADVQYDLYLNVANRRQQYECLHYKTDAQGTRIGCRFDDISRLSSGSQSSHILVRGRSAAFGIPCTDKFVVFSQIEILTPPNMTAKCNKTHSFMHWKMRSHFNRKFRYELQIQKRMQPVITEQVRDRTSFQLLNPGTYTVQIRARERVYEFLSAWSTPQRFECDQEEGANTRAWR
Assay: ELISA
Parameters: unit not given here

B1: D domain of SEQ ID NO: 543 (designed binder)
chain: MGSWFEFKDYLADIKWDLEALGGSEAELAIFEHDIAYFEHNLQQYKGKGNPEVEALRKEAAAIRDELQAYRHN
ELISA_avg: 3.8

B2: D domain of SEQ ID NO: 544 (designed binder)
chain: MGSWVRFKDFLADIKMDLEALGGSEAELADFEYHIAEFEHNLQEYKGKGNPEVEALRKEAAAIRDELQAYRHN
ELISA_avg: 5.8

B3: D domain of SEQ ID NO: 545 (designed binder)
chain: MGSWWLFKEQLALIKYNLEALGGSEAELADFESWIAEFEHQLQEYKGKGNPEVEALRKEAAAIRDELQAYRHN
ELISA_avg: 4.1

B4: D domain of SEQ ID NO: 546 (designed binder)
chain: MGSWHVFKTELADIKFYLEALGGSEAELAMFELWIAEFEHELQDYKGKGNPEVEALRKEAAAIRDELQAYRHN
ELISA_avg: 5.4

B5: D domain of SEQ ID NO: 547 (designed binder)
chain: MGSWIWFKDWLADIKDLLEALGGSEAELAEFEYDIALFEDQLQAYKGKGNPEVEALRKEAAAIRDELQAYRHN
ELISA_avg: 7.3

B6: D domain of SEQ ID NO: 548 (designed binder)
chain: MGSWGWFKHELAFIKADLEALGGSEAELAWFEEEIAEFEYELQFYKGKGNPEVEALRKEAAAIRDELQAYRHN
ELISA_avg: 3.3

B7: D domain of SEQ ID NO: 549 (designed binder)
chain: MGSWTWFKDNLAWIKEDLEALGGSEAELAWFELEIASFETALQDYKGKGNPEVEALRKEAAAIRDELQAYRHN
ELISA_avg: 6.9

B8: D domain of SEQ ID NO: 550 (designed binder)
chain: MGSWTYFKNDLAGIKEDLEALGGSEAELAQFEFEIAEFEWLLQDYKGKGNPEVEALRKEAAAIRDELQAYRHN
ELISA_avg: 3.6

B9: D domain of SEQ ID NO: 551 (designed binder)
chain: MGSWTWFKWDLADIKGDLEALGGSEAELAFFEEEIAEFEWRLQDYKGKGNPEVEALRKEAAAIRDELQAYRHN
ELISA_avg: 5.9

B10: D domain of SEQ ID NO: 552 (designed binder)
chain: MGSWLYFKEYLADIKSDLEALGGSEAELAWFEYEIADFEEQLQYYKGKGNPEVEALRKEAAAIRDELQAYRHN
ELISA_avg: 3.7

B11: D domain of SEQ ID NO: 553 (designed binder)
chain: MGSWHWFKEELAEIKEDLVALGGSEAELAWFEYDIAMFELSLQNYKGKGNPEVEALRKEAAAIRDELQAYRHN
ELISA_avg: 3.1

B12: D domain of SEQ ID NO: 554 (designed binder)
chain: MGSWNDFKEELAWIKFDLEALGGSEAELAWFEEDIAMFEQQLQAYKGKGNPEVEALRKEAAAIRDELQAYRHN
ELISA_avg: 3.8

Now from value to binder:

ELISA_avg: 4.2
B13: D domain of SEQ ID NO: 555 (designed binder)
chain: MGSWWDFKDWLAEIKHDLEALGGSEAELALFESEIADFEFGLQWYKGKGNPEVEALRKEAAAIRDELQAYRHN

ELISA_avg: 6.3
B14: D domain of SEQ ID NO: 556 (designed binder)
chain: MGSWDEFKEDLAHIKTDLEALGGSEAELALFEDEIADFEMYLQHYKGKGNPEVEALRKEAAAIRDELQAYRHN

ELISA_avg: 5.5
B15: D domain of SEQ ID NO: 557 (designed binder)
chain: MGSWDFFKYDLANINEWLEALGGSEAELADFEYGIADFELWLQDYKGKGNPEVEALRKEAAAIRDELQAYRHN

ELISA_avg: 4
B16: D domain of SEQ ID NO: 558 (designed binder)
chain: MGSWYQFKDDLAHIKHLLEALGGSEAELAVFEYIIADFESFLQIYKGKGNPEVEALRKEAAAIRDELQAYRHN

ELISA_avg: 3.3
B17: D domain of SEQ ID NO: 559 (designed binder)
chain: MGSWAEFKHDLADIKRELEALGGSEAELAWFELSIAFFEDELQHYKGKGNPEVEALRKEAAAIRDELQAYRHN

ELISA_avg: 3.6
B18: D domain of SEQ ID NO: 560 (designed binder)
chain: MGSWVVFKQDLADINHQLEALGGSEAELAWFEWEIADFEWELQHYKGKGNPEVEALRKEAAAIRDELQAYRHN
